B1: SAIT-ANG2-AB-2-E6 (scFv form) (scFv, V domains shown)
VH: EVQLLESGGGLVQTGGSLRLSCAASGFTFSDYAMSWVRQAPGKGLEWVSAIYPDSGNKYYADSVKGRFTISRDNSKNTLYLQMNSLRAEDTAVYYCARHSSDPKVKSGYYDDGMDVWGQGTLVAVSS
VL: QSVLTQPPSASGTPGQRVTISCSGSSSNIGNNAVNWYQQLPGTAPKLLIYADSNRPSGVPDRFSGSKSGTSASLAISGLRSEDEADYYCGSWDYSLSGYVFGGGTKLTVLG
B2: SAIT-ANG2-AB-7-C9 (scFv form) (scFv, V domains shown)
VH: EVQLLESGGGLVQPGGSLRLSCAASGFTFSNYAMSWVRQAPGKGLEWVSAISSGGGNIYYADSVKGRFTISRDNSKNTLYLQMNSLRAEDTAVYYCAKSGIQPSPPSMSSAYAMDVWGQGTLVTVSS
VL: QSVLTQPPSASGTPGQRVTISCSGSSSNIGNNDVYWYQQLPGTAPKLLIYANSHRPSGVPDRFSGSKSGTSASLAISGLRSEDEADYYCGTWDYSLSGYVFGGGTKLTVLG
B3: SAIT-ANG2-AB-3-D3 (scFv form) (scFv, V domains shown)
VH: EVQLLESGGGLVQPGGSLRLSCAASGFTFSDYDMSWVRQAPGKGLEWVSGISSDDGNTYYADSVKGRFTISRDNSKNTLYLQMNSLRAEDTAVYYCARPTIDKYTLRGYYSYGMDVWGQGTLVTVSS
VL: QSVLTQPPSASGTPGQRVTISCTGSSSNIGSNYVSWYQQLPGTAPKLLIYSDNKRPSGVPDRFSGSKSGTSASLAISGLRSEDEADYYCGTWDDSLNGYVFGGGTKLTVLG
B4: SAIT-ANG2-AB-4-C11 (scFv form) (scFv, V domains shown)
VH: EVQLLESGGGLVQPGGSLRLSCAASGFTFSDYAMSWVRQAPGKGLEWVSSIYPDDGNTYYADSVKGRFTISRDNSKNTLYLQMNSLRAEDTAVYYCARHTSHHTSIDGYYYYGMDGWGQGTLVTVSS
VL: QSVLTQPPSASGTPGQRVTISCTGSSSNIGNNDVSWYQQLPGTAPKLLIYSDSKRPSGVPDRFSGSKSGTSASLAISGLRSEDEADYYCGSWDYSLSGYVFGGGTKLTVLG
B5: SAIT-ANG2-AB-4-F5 (scFv form) (scFv, V domains shown)
VH: EVQLLESGGGLVQPGGSLRLSCAASGFTFSDYDMSWVRQAPGKGLEWVSSISHGDSNKYYADSVKGRFTISRDNSKNTLYLQMNSLRAEDTAVYYCAKSSGIQESPPTYYYYGMDVWGQGTLVTVSS
VL: QSVLTQPPSASGTPGQRVTISCSGSSSNIGSNAVNWYQQLPGTAPKLLIYADSNRPSGVPDRFSGSKSGTSASLAISGLRSEDEADYYCGSWDYSLSGYVFGGGTKLTVLG
B6: SAIT-ANG2-AB-4-F11 (scFv form) (scFv, V domains shown)
VH: EVQLLESGGGLVQTGGSLRLSCAASGFTFSDYAMSWVRQAPGKGLEWVSSIYPDDGNTYYADSVKGRFTISRDNSKNTLYLQMNSLRAEDTAVYYCAKHPVRLNLHPMYYYYGMDVWGQGTLVTVSS
VL: QSVLTQPPSASGTPGQRVTISCTGSSSNIGNNAVSWYQQLPGTAPKLLIYSDSQRPSGVPDRFSGSKSGTSASLAISGLRSEDEADYYCATWDYSLSAYVFGGGTKLTVLG

Target: FLAG-tagged Ang2 mutant A449 (alanine) (human) (UniProt O15123)
UniProt O15123, sequence (O15123 other isoform, or with tags, fused parts or gaps mutant): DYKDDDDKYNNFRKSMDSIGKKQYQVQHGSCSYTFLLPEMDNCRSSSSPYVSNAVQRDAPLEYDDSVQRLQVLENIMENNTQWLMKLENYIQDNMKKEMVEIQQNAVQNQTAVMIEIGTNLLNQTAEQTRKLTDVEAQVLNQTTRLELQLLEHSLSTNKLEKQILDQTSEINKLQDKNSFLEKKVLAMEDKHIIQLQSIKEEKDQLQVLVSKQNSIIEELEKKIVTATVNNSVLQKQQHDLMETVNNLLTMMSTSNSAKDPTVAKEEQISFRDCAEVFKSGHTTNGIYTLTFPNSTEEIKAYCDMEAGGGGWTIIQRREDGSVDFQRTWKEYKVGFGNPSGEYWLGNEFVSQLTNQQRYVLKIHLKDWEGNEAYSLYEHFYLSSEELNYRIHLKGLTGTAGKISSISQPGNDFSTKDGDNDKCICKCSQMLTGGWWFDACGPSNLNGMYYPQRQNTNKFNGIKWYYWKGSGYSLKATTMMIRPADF
Assay: ELISA, scFv coated, FLAG-tagged mutant Ang2, anti-FLAG-HRP

| Binder | Relative binding (%) with Mutant Ang2 compared to the binding with native Ang2 [%] |
| --- | --- |
| B1 | 3.3 |
| B2 | 14.5 |
| B3 | 101 |
| B4 | 4.8 |
| B5 | 14 |
| B6 | 16.7 |
